Experimental data from paper PMC2993962, “Identification of a Novel Binding Partner of Phospholipase Cβ1: Translin-Associated Factor X” (PLoS ONE, 2010).

B1: Gαq (natural protein, rat, UniProt P82471 1-359, looked up)
chain: MTLESIMACCLSEEAKEARRINDEIERQLRRDKRDARRELKLLLLGTGESGKSTFIKQMRIIHGSGYSDEDKRGFTKLVYQNIFTAMQAMVRAMDTLKIPYKYEHNKAHAQLVREVDVEKVSAFENPYVDAIKSLWNDPGIQECYDRRREYQLSDSTKYYLNDLDRVADPSYLPTQQDVLRVRVPTTGIIEYPFDLQSVIFRMVDVGGQRSERRKWIHCFENVTSIMFLVALSEYDQVLVESDNENRMEESKALFRTIITYPWFQNSSVILFLNKKDLLEEKIMYSHLVDYFPEYDGPQRDAQAAREFILKMFVDLNPDSDKIIYSHFTCATDTENIRFVFAAVKDTILQLNLKEYNLV
modifications: thiol-reactive probe CPM, ~1:1 probe:protein (in the binding titrations)
notes: G protein alpha subunit q (Gαq), rat; the nucleotide state is told by the assay; The sentence of the methods leaves open whether Gαq carried a His tag; also called CPM-Gαq(GTPγS); Gαq-GTPγS; source: Sf9 cells, purified
B2: His-tagged translin-associated factor X (TRAX) (natural protein, human, UniProt Q99598 1-290, looked up)
chain: MSNKEGSGGFRKRKHDNFPHNQRREGKDVNSSSPVMLAFKSFQQELDARHDKYERLVKLSRDITVESKRTIFLLHRITSAPDMEDILTESEIKLDGVRQKIFQVAQELSGEDMHQFHRAITTGLQEYVEAVSFQHFIKTRSLISMDEINKQLIFTTEDNGKENKTPSSDAQDKQFGTWRLRVTPVDYLLGVADLTGELMRMCINSVGNGDIDTPFEVSQFLRQVYDGFSFIGNTGPYEVSKKLYTLKQSLAKVENACYALKVRGSEIPKHMLADVFSVKTEMIDQEEGIS
notes: translin-associated factor X (TRAX), human cDNA from Open Biosystems cloned into pET32a; pET32a may also add thioredoxin and an S tag, depending on the cloning sites (surmise); source: Rosetta cells (pET32a), purified on a Ni-NTA column
B3: His6-PLCβ1 (phospholipase Cβ1), full length enzyme (enzyme, rat, UniProt P10687 1-1216, looked up)
chain: MAGAQPGVHALQLKPVCVSDSLKKGTKFVKWDDDSTIVTPIILRTDPQGFFFYWTDQNKETELLDLSLVKDARCGKHAKAPKDPKLRELLDVGNIGHLEQRMITVVYGPDLVNISHLNLVAFQEEVAKEWTNEVFSLATNLLAQNMSRDAFLEKAYTKLKLQVTPEGRIPLKNIYRLFSADRKRVETALEACSLPSSRNDSIPQEDFTPDVYRVFLNNLCPRPEIDNIFSEFGAKSKPYLTVDQMMDFINLKQRDPRLNEILYPPLKQEQVQVLIEKYEPNSSLAKKGQMSVDGFMRYLSGEENGVVSPEKLDLNEDMSQPLSHYFINSSHNTYLTAGQLAGNSSVEMYRQVLLSGCRCVELDCWKGRTAEEEPVITHGFTMTTEISFKEVIEAIAECAFKTSPFPILLSFENHVDSPKQQAKMAEYCRLIFGDALLMEPLEKYPLESGVPLPSPMDLMYKILVKNKKKSHKSSEGSGKKKLSEQASNTYSDSSSVFEPSSPGAGEADTESDDDDDDDDCKKSSMDEGTAGSEAMATEEMSNLVNYIQPVKFESFETSKKRNKSFEMSSFVETKGLEQLTKSPVEFVEYNKMQLSRIYPKGTRVDSSNYMPQLFWNAGCQMVALNFQTVDLAMQINMGMYEYNGKSGYRLKPEFMRRPDKHFDPFTEGIVDGIVANTLSVKIISGQFLSDKKVGTYVEVDMFGLPVDTRRKAFKTKTSQGNAVNPVWEEEPIVFKKVVLPSLACLRIAAYEEGGKFIGHRILPVQAIRPGYHYICLRNERNQPLMLPAVFVYIEVKDYVPDTYADVIEALSNPIRYVNLMEQRAKQLAALTLEDEEEVKKEADPGETSSEAPSETRTTPAENGVNHTATLAPKPPSQAPHSQPAPGSVKAPAKTEDLIQSVLTEVEAQTIEELKQQKSFVKLQKKHYKEMKDLVKRHHKKTTELIKEHTTKYNEIQNDYLRRRAALEKSAKKDSKKKSEPSSPDHGSSAIEQDLAALDAEMTQKLIDLKDKQQQQLLNLRQEQYYSEKYQKREHIKLLIQKLTDVAEECQNNQLKKLKEICEKEKKELKKKMDKKRQEKITEAKSKDKSQMEEEKTEMIRSYIQEVVQYIKRLEEAQSKRQEKLVEKHKEIRQQILDEKPKLQMELEQEYQDKFKRLPLEILEFVQEAMKGKVSEDSNHGSAPPSLASDPAKVNLKSPSSEEVQGENAGREFDTPL
modifications: thiol-reactive probe CPM, ~1:1 probe:protein, in the titrations with TRAX (CPM-PLCβ1); unlabelled when added to CPM-Gαq
notes: phospholipase Cβ1, rat, full length enzyme; also called CPM-PLCβ1; His-tagged PLCβ1; source: Sf9 cells, purified

Tests used:
Gαq [1] = biological target: Gαq (UniProt P21279); settings: cited from earlier work
[2] = biological target: B3; assay: other fluorescence titration; 2 nM CPM-Gαq activated with GTPγS on large unilamellar vesicles of POPC:POPS:POPE (1:1:1); PLCβ1 added; without and with excess TRAX (300 nM in the text, 200 nM in the legend); settings: both partners purified
[3] = biological target: B3; assay: other fluorescence titration; 2 nM CPM-labelled PLCβ1 (full length or ΔC) in solution, unlabelled TRAX added stepwise; increase of CPM intensity (excitation 380 nm, emission 420-560 nm) fitted to a bimolecular dissociation constant; apparent; settings: both partners purified
Gαq [4] = biological target: B1; assay: other fluorescence titration; 2 nM CPM-Gαq activated with GTPγS on large unilamellar vesicles of POPC:POPS:POPE (1:1:1); PLCβ1 added; without and with excess TRAX (300 nM in the text, 200 nM in the legend); settings: both partners purified

Molecule: PLCβ1 (from UniProt Q9NQ66)
Kd (Gαq [1]): 0.67 nM

Molecule: B1
binding result [2]: binds

Molecule: B2
Kd [3]: 8 nM

Molecule: B3
fold reduction of binding affinity in the presence of excess TRAX (Gαq [4]): 3 fold
